Read-outs that look alike come from different tables or passages of the source.
Columns and labels:
[1] = biological target: T1, hTM4SF5EC2-C cyclic peptide (human, cyclic: disulfide bond between the cysteines that replace glycine 133 and valine 156 (3rd and 26th residue of the peptide); biotinylated for SPR); assay: SPR (Reichert SPR 7500DC), biotinylated peptide on streptavidin chip, antibody injected, 25 C
T1 construct: Chemically synthesized (Peptron); also called cyclic TM4SF5 peptide; TM4SF5 cyclic peptide
T1 peptide: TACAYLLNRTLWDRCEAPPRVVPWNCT
Description: (§1) The affinities of anti-hTM4SF5 monoclonal antibody (mEC2-C) and humanized anti-TM4SF5 antibody (hEC2-C-2) binding to hTM4SF5EC2-C cyclic peptide were measured at 25° C. using the Reichert SPR system. Biotinylated peptides were captured from each flowing cell surface of a streptoavidin-coated sensor chip. Biotin was used as a negative control. Anti-hTM4SF5 monoclonal antibody (mEC2-C) and humanized anti-TM4SF5 antibody were injected at a flow rate of 30 ml/min. Data were evaluated using Reichert SPR evaluation software.

[2] = biological target: T1, hTM4SF5EC2-C cyclic peptide; assay: ELISA on coated hTM4SF5EC2-C, purified antibody titrated
hTM4SF5R2-3 peptide [3] = biological target: T2, hTM4SF5R2-3 peptide (human); assay: ELISA on coated hTM4SF5R2-3, purified antibody titrated
T2 peptide: NRTLWDRCEAPPRV

[4] = biological target: T3, Myc-tagged recombinant human TM4SF5 protein (human, UniProt O14894 1-197); assay: Western blot of HEK 293F-EV and HEK 293F-TM4SF5 lysates with hybridoma culture supernatant
T3 construct: whole, on cells; tested in cell lysates by Western blot and immunoprecipitation, not on whole cells; also called hTM4SF5; recombinant TM4SF5 protein; not shown: C-terminal Myc-His tag of the vector pcDNA-3.1/Myc-His(-)B
T3 sequence (looked up): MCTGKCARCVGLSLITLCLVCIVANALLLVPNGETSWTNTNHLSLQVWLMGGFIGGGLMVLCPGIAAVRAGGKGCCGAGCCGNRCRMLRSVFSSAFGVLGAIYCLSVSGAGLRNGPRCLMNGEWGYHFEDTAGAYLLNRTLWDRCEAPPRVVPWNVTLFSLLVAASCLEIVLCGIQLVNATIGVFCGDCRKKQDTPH

[5] = biological target: T1, hTM4SF5EC2-C cyclic peptide; assay: SPR (Reichert SPR 7500DC), biotinylated cyclic peptide on streptavidin chip, antibody 0 to 80 nM, 1:1 binding with mass transfer
Description: FIG. 6 represents purification and characterization of mouse anti-TM4SF5 monoclonal antibodies recognizing TM4SF5 cyclic peptides. (A) Hydrops abdominis was producted from BALB/c mice by injecting i.p. into the abdominal cavity with hybridoma clone (2A10 clone) derived from FIG. 5. Anti-TM4SF5 monoclonal antibody was purified using protein-A agarose column chromatography and the purified antibody was identified by SDS-PAGE and Coomassie blue staining. (B) The isotype was determined by obtaining titration curves using purified monoclonal antibodies. (C) A binding affinity of monoclonal antibody for cyclic peptide hTM4SF5EC2-C was determined by using ELISA. (D) A binding affinity of monoclonal antibody for cyclic peptide […] was determined by using Reichert Analytical Instruments SPR 7500DC (Reichert). Biotinylated peptides were immobilized on streptavidin chip and the amount of antibody was increased. Kinetic parameters of binding reactions are expressed under sensorgrams.
as §1, with “Anti-hTM4SF5 monoclonal antibody (mEC2-C) and humanized anti-TM4SF5 antibody were injected at a flow rate of 30 ml/min.” left out

[6] = biological target: T1, hTM4SF5EC2-C cyclic peptide; assay: ELISA on coated hTM4SF5EC2-C, purified antibody titrated
hTM4SF5R2-3 peptide [7] = biological target: T2, hTM4SF5R2-3 peptide; assay: ELISA on coated hTM4SF5R2-3, purified antibody titrated
[8] = biological target: T1, hTM4SF5EC2-C cyclic peptide; assay: SPR, Kd of hEC2-C-2 against Kd of mEC2-C
Description: as §1

[9] = biological target: T1, hTM4SF5EC2-C cyclic peptide; assay: SPR (Reichert SPR 7500DC), cyclic peptide hTM4SF5EC2-C on chip, antibody 0 to 3.75 nM, 1:1 binding with mass transfer
Description: as §1

Binder | Kd [1] [nM] | koff [1] [s⁻¹] | EC50 (read off the curve) [2] [nM] | binding result (hTM4SF5R2-3 peptide [3]) | binding result [4] | Kd [5] [nM] | kon [5] [M⁻¹ s⁻¹] | EC50 (read off the curve) [6] [pM] | binding result (hTM4SF5R2-3 peptide [7]) | fold lower Kd than the original mouse monoclonal antibody mEC2-C [8] [fold] | Kd [9] [nM] | koff [9] [s⁻¹] | kon [9] [M⁻¹ s⁻¹]
anti-TM4SF5 monoclonal antibody mEC2-C (antibody, V domains shown, also called mouse anti-TM4SF5 monoclonal antibody; anti-hTM4SF5 monoclonal antibody) VH: QVQLEESGPGLVAPSQSLSIICTVSGFSLTSYGVTWVRQPPGKGLEWLGVIWSDGSTNYQSALISRLTISRDNSKSQAFLKLNSLQTDDTATYYCARPSNYYYFDYWGQGTTLTVSS VL: DIVMTQSPSSLAVSAGERVTLSCKSSQSLFDRRTRKTYLAWYQQKPGQSPKLLISWASTRESGVPDRFTGSGSGTDFTLTISSVQAEDLAVYYCKQSYNLFTFGGGTKLEIK | ≤ 0.48 | ≤ 1e-05 | ~3 | no binding (tested: 1e-6 M) | binds | 0.488 | 20500 | – | – | – | – | – | –
humanized anti-TM4SF5 antibody hEC2-C-2 (antibody, V domains shown, hEC2-C-2 is the clone that was expressed and tested; also called hEC2-C-2 Ab; hEC2-C-2 IgG) VH: EVQLVESGGGLVQPGGSLRLSCAASGFSLTSYGVTWVRQAPGKGLEWLGVIWSDGSTNYQSALISRLTISRDNSKNTAYLQMNSLRAEDTAVYYCARPSNYYYFDYWGQGTLVTVSS VL: DIQMTQSPSSLSASVGDRVTITCKSSQSLFDRRTRKTYLAWYQQKPGKAPKLLISWASTRESGVPSRFSGSGSGTDFTLTISSLQPEDFATYYCKQSYNLFTFGQGTKVEIK | ~0.0227 | – | – | – | – | – | – | ~100 | no binding (tested: 1e-6 M) | ~20 | 0.0227 | 1e-05 | 440000

Source: patent publication US20190231872A1 (INDUSTRY ACADEMIC COOPERATION FOUNDATION HALLYM UNIVERSITY, published 2019)
